Test results as given in the Immune Epitope Database (IEDB).

What follows are sequences tested against HLA-A*11:01 (assay: IEDB peptide-MHC binding, purified MHC/competitive/radioactivity; ≥ and ≤ were set here for values at or beyond the usual limits of such assays). Details: source organism: Hepatitis B virus.

Sequence | IC50
AVNHYFKTR | 61 nM
CALPFTSAR | 316 nM
GSTHVSWPK | 3.1 nM
GTDNSVVLSR | 107 nM
IMPARFYPK | 4.1 nM
KVFVLGGCR | 6.5 nM
LSLDVSAAFY | 545 nM
RLADEGLNR | 245 nM
TTDLEAYFK | 6.5 nM

Same assay, conditions: source organism: Homo sapiens

IC50 | Sequence
128 nM | ATQIPSYKK
1150 nM | ESLFRAVITK

Same assay, conditions: source organism: Human immunodeficiency virus 1

Sequence | IC50
ASQIYAGIK | 18 nM
AVDLSHFLK | 5 nM
AVFIHNFKRK | 7.1 nM
GIPHPAGLK | 35 nM
KVLFLDGIDK | 7.7 nM
KVYLAWVPAHK | 7.6 nM
MTKILEPFR | 378 nM
QIYQEPFKNLK | 21 nM
QMAVFIHNFK | 8.4 nM
RAKWNNTLK | 188 nM
TVQPIVLPEK | 2.4 nM
YLAWVPAHK | 106 nM

Same assay, conditions: source organism: Influenza A virus (A/Puerto Rico/8/1934(H1N1))

Sequence | IC50
GTKVVPRGK | 72 nM
GVTAACSHAGK | 30 nM
LTEKEGSYPK | 121 nM
NVKNLYEKVK | 51 nM
PVTIGECPK | 2.6 nM
RMGVQMQRFK | 94 nM

Same assay, conditions: source organism: Plasmodium falciparum

Sequence | IC50
LACAGLAYK | 207 nM
